Measured values: patent US20140004106A1

How the values were obtained:
[1] = target: 28mer peptide of the CXCR5 antigen; assay: Antigen-ELISA; TRIS 10 mM pH 7.5, T0
[2] = target: 28mer peptide of the CXCR5 antigen; assay: ELISA potency (binding); 100 mg/mL, Sucrose (60) + NaCl (2), T zero
[3] = target: 28mer peptide of the CXCR5 antigen; assay: Antigen-ELISA; Succinate 10 mM pH 6.00, T0
[4] = target: 28mer peptide of the CXCR5 antigen; assay: Antigen-ELISA; Citrate 10 mM pH 7.00, after mechanical stress 350 rpm 2.5 h
[5] = target: 28mer peptide of the CXCR5 antigen; assay: Antigen-ELISA; PB 5 mM pH 6.50, after 1 week at +40°C
[6] = target: 28mer peptide of the CXCR5 antigen; assay: ELISA potency (binding); 100 mg/mL, Glycine (20) + Mannitol (15), T zero
[7] = target: 28mer peptide of the CXCR5 antigen; assay: Antigen-ELISA; acetate 10 mM prototype B, repeated values in the 3 weeks -20°C
[8] = target: 28mer peptide of the CXCR5 antigen; assay: Antigen-ELISA; PB 10 mM pH 7.50, after mechanical stress 350 rpm 2.5 h
[9] = target: 28mer peptide of the CXCR5 antigen; assay: ELISA potency (binding); 100 mg/mL, Arginine (20) + NaCl (2), 7 days at 40°C
[10] = target: 28mer peptide of the CXCR5 antigen; assay: Antigen-ELISA; standard run with LA_09_27D, T0
[11] = target: 28mer peptide of the CXCR5 antigen; assay: Antigen-ELISA; TRIS 10 mM pH 7.5, after 1 week at +40°C
[12] = target: 28mer peptide of the CXCR5 antigen; assay: Antigen-ELISA; PBS 155 mM, clear glass type I, 24 h +40°C
[13] = target: 28mer peptide of the CXCR5 antigen; assay: Potency (Antigen ELISA); stored -20°C, 12 months
[14] = target: 28mer peptide of the CXCR5 antigen; assay: Antigen-ELISA; standard run with LA_09_004_4
[15] = target: 28mer peptide of the CXCR5 antigen; assay: Ag-ELISA; DS in PBS, 25°C, 3 months
[16] = target: 28mer peptide of the CXCR5 antigen; assay: Potency (Antigen ELISA); stored +5°C, 9 months
[17] = target: 28mer peptide of the CXCR5 antigen; assay: Antigen-ELISA; PBS 155 mM pH 6.50, after 1 week at +40°C
[18] = target: 28mer peptide of the CXCR5 antigen; assay: Antigen-ELISA; acetate 10 mM prototype A, T0
[19] = target: 28mer peptide of the CXCR5 antigen; assay: Antigen-ELISA; acetate 10 mM prototype B, T0
[20] = target: 28mer peptide of the CXCR5 antigen; assay: Potency (Antigen ELISA); stored +25°C, initial
[21] = target: 28mer peptide of the CXCR5 antigen; assay: Antigen-ELISA; Histidine 10 mM pH 5.5, after 1 week at +40°C
[22] = target: 28mer peptide of the CXCR5 antigen; assay: Antigen-ELISA; standard run with LA_09_28D, T0
[23] = target: 28mer peptide of the CXCR5 antigen; assay: ELISA potency (binding); 100 mg/mL, Trehalose (60) + Mannitol (15), 7 days at 40°C
[24] = target: 28mer peptide of the CXCR5 antigen; assay: Antigen-ELISA; citrate 10 mM prototype A, T0
[25] = target: 28mer peptide of the CXCR5 antigen; assay: ELISA potency (binding); 100 mg/mL, Sucrose (60) + Mannitol (15), 7 days at 40°C
[26] = target: 28mer peptide of the CXCR5 antigen; assay: Antigen-ELISA; Acetate 10 mM pH 5.00, T0
[27] = target: 28mer peptide of the CXCR5 antigen; assay: Ag-ELISA; DS in PBS, 25°C, 1 month
[28] = target: 28mer peptide of the CXCR5 antigen; assay: Antigen-ELISA; Citrate 10 mM pH 5.50, T0
[29] = target: 28mer peptide of the CXCR5 antigen; assay: ELISA potency (binding); 100 mg/mL, Lysine (30) + Mannitol (15), 7 days at 40°C
[30] = target: 28mer peptide of the CXCR5 antigen; assay: ELISA potency (binding); 100 mg/mL, Arginine (30), 7 days at 40°C
[31] = target: 28mer peptide of the CXCR5 antigen; assay: Ag-ELISA; DS in PBS, 5°C, 1 month
[32] = target: 28mer peptide of the CXCR5 antigen; assay: Antigen-ELISA; Saline 150 mM pH 6.00, after 1 week at +40°C
[33] = target: 28mer peptide of the CXCR5 antigen; assay: ELISA potency (binding); 100 mg/mL, Arginine (20) + NaCl (2), T zero
[34] = target: 28mer peptide of the CXCR5 antigen; assay: Antigen-ELISA; PBS 155 mM pH 7.00, T0
[35] = target: 28mer peptide of the CXCR5 antigen; assay: Antigen-ELISA; PBS 155 mM pH 7.50, after mechanical stress 350 rpm 2.5 h
[36] = target: 28mer peptide of the CXCR5 antigen; assay: Antigen-ELISA; citrate 10 mM prototype B, T0
[37] = target: 28mer peptide of the CXCR5 antigen; assay: Antigen-ELISA; standard run with LA_09_004_6
[38] = target: 28mer peptide of the CXCR5 antigen; assay: ELISA potency (binding); 100 mg/mL, Trehalose (60) + NaCl (2), 7 days at 40°C
[39] = target: 28mer peptide of the CXCR5 antigen; assay: Antigen-ELISA; TRIS 10 mM pH 8.5, after 1 week at +40°C
[40] = target: 28mer peptide of the CXCR5 antigen; assay: Antigen-ELISA; standard run with LA_09_004_2
[41] = target: 28mer peptide of the CXCR5 antigen; assay: Antigen-ELISA; Acetate 10 mM pH 5.50, after 1 week at +40°C
[42] = target: 28mer peptide of the CXCR5 antigen; assay: Antigen-ELISA; PB 10 mM pH 7.50, T0

B1: Lead CXCR5 Antibody (humanized IgG4 anti-CXCR5 antibody) (antibody, V domains shown)
VH: QVQLKESGPGLVAPSESLSITCTVSGFSLIDYGVNWIRQPPGKGLEWLGVIWGDGTTYYNPSLKSRLSISKDNSKSQVFLKVTSLTTDDTAMYYCARIVYWGQGTLVTVSA
VL: DIVMTQAAPSVAVTPGASVSISCRSSKSLLHSSGKTYLYWFLQRPGQSPQLLIYRLSSLASGVPDRFSGSGSGTAFTLRISRVEAEDVGVYYCMQHLEYPYTFGGGTKLEIKR
In the case of B1, the EC50 % [1] is reported as 104%, the rel. potency [%] [2] is reported as 165% and the EC50 % [3] is reported as 112%. The EC50 % [4] was 101%, the EC50 % [5] was 77% and the rel. potency [%] [6] was 111%. It also gave an EC50 % [7] of 112%, an EC50 % [8] of 60.9% and a rel. potency [%] [9] of 164%. For the same binder, the EC50 % [10] was 100%, the EC50 % [11] was 184% and the EC50 % [12] was 131%. It also gave an EC50 value (in comparison to reference) [13] of 96%, an EC50 % [14] of 100% and an EC50 % [15] of 108%. For the same binder, the EC50 value (in comparison to reference) [16] was 92%, the EC50 % [17] was 115% and the EC50 % [18] was 112%. The EC50 % [19] was 112%, the EC50 value (in comparison to reference) [20] was 75% and the EC50 % [21] was 81%. It also gave an EC50 % [22] of 100%, a rel. potency [%] [23] of 266% and an EC50 % [24] of 112%. It also gave a rel. potency [%] [25] of 243%, an EC50 % [26] of 147% and an EC50 % [27] of 106%. For the same binder, the EC50 % [28] was 112%, the rel. potency [%] [29] was 297% and the rel. potency [%] [30] was 143%. It also gave an EC50 % [31] of 83%, an EC50 % [32] of 80.9% and a rel. potency [%] [33] of 144%. For the same binder, the EC50 % [34] was 74%, the EC50 % [35] was 71% and the EC50 % [36] was 104%. The EC50 % [37] was 100%, the rel. potency [%] [38] was 191% and the EC50 % [39] was 237%. The EC50 % [40] was 100%, the EC50 % [41] was 94.9% and the EC50 % [42] was 117%.
